Experimental data reported in article PMC7537107 (Journal of neurochemistry, 2019).

B1: HA-tagged spinophilin, full length (amino acids 1-817, fragment A) (natural protein)
chain: not shown
B2: V5-tagged GluN2B C-terminal, cytosolic tail (amino acids 839-1484) (domain or fragment, human, UniProt Q13224 839-1484, looked up)
chain: EHLFYWQFRHCFMGVCSGKPGMVFSISRGIYSCIHGVAIEERQSVMNSPTATMNNTHSNILRLLRTAKNMANLSGVNGSPQSALDFIRRESSVYDISEHRRSFTHSDCKSYNNPPCEENLFSDYISEVERTFGNLQLKDSNVYQDHYHHHHRPHSIGSASSIDGLYDCDNPPFTTQSRSISKKPLDIGLPSSKHSQLSDLYGKFSFKSDRYSGHDDLIRSDVSDISTHTVTYGNIEGNAAKRRKQQYKDSLKKRPASAKSRREFDEIELAYRRRPPRSPDHKRYFRDKEGLRDFYLDQFRTKENSPHWEHVDLTDIYKERSDDFKRDSVSGGGPCTNRSHIKHGTGDKHGVVSGVPAPWEKNLTNVEWEDRSGGNFCRSCPSKLHNYSTTVTGQNSGRQACIRCEACKKAGNLYDISEDNSLQELDQPAAPVAVTSNASTTKYPQSPTNSKAQKKNRNKLRRQHSYDTFVDLQKEEAALAPRSVSLKDKGRFMDGSPYAHMFEMSAGESTFANNKSSVPTAGHHHHNNPGGGYMLSKSLYPDRVTQNPFIPTFGDDQCLLHGSKSYFFRQPTVAGASKARPDFRALVTNKPVVSALHGAVPARFQKDICIGNQSNPCVPNNKNPRAFNGSSNGHVYEKLSSIESDV

Tests used:
[1] = molecular target: B2; assay: co-IP
[2] = molecular target: B1; assay: co-IP

fold change of co-IP with IBMX/forskolin against vehicle (V5 IP) [1] | fold change of co-IP with PKAc overexpressed against without (GluN2B_(Tail) IP) [1] | fold change of co-IP with IBMX/forskolin against vehicle (HA IP) [2] | fold change of co-IP with PKAc overexpressed against without (spinophilin IP) [2] | Binder
3.05 ratio to control | 10.6 ratio to control |  |  | B1
 |  | 1.48 ratio to control | 2.14 ratio to control | B2
